Data on 1 protein can be found in FireProtDB (doi:10.1021/bi002653y).

Values joined by “and” are separate entries in the source; they are usually repeats but may differ in a detail not shown here. Identical values can stand only once.

For this data set the following is noted: Desulfovibrio desulfuricans (strain ATCC 27774 / DSM 6949 / MB), pH 7, 20 °C, GdnHCl, sodium phosphate 5 mM, reversible: yes, whole UniProt chain shown.

B1: Desulfoferrodoxin wild type, P22076 (protein)
chain: MPKHLEVYKCTHCGNIVEVLHGGGAELVCCGEPMKHMVEGSTDGAMEKHVPVIEKVDGGYLIKVGSVPHPMEEKHWIEWIELLADGRSYTKFLKPGDAPEAFFAIDASKVTAREYCNLHGHWKAEN
As for B1, the “denaturant midpoint (higher = more stable)” value reads like this: (CD, transition: 3) 4.9 M and 5.1 M; (Fluorescence) 2.3 M; (Fluorescence, transition: 3) 1.7 M and 2.2 M and 2.9 M. In addition, the unfolding free energy by setting is: (CD, transition: 3) 11.3 kcal/mol and 12 kcal/mol; (Fluorescence) 11.3 kcal/mol; (Fluorescence, transition: 3) 10.6 kcal/mol and 10.9 kcal/mol.
